In article PMC2873289, “A Helix Replacement Mechanism Directs Metavinculin Functions” (PLoS ONE, 2010):

Legend:
[1] = target: T1, metavinculin-ΔH1ΔH1′ (lacking residues 895–915 and 963–983) (human, UniProt P18206 1-1134, lacking residues 895–915 | lacking residues 963–983); assay: pull-down; GST-Vt (0.5 µM) on GST-Sepharose beads, with or without pre-incubation with 5 µM PIP2; 15 µM His8-tagged metavinculin or deletion mutant pre-activated with talin-VBS3, 1 hr 37°C; 20 mM Tris-HCl pH 8, 150 mM NaCl; eluted with glutathione, SDS-PAGE, Western blot; conditions: both partners purified
T1 construct: human metavinculin, full length (1-1,134) lacking residues 895-915 (H1) and 963-983 (H1′); source: E. coli BL21-DE3, purified (as full-length metavinculin); not shown: His8, N-terminal, kept
T1 sequence (looked up): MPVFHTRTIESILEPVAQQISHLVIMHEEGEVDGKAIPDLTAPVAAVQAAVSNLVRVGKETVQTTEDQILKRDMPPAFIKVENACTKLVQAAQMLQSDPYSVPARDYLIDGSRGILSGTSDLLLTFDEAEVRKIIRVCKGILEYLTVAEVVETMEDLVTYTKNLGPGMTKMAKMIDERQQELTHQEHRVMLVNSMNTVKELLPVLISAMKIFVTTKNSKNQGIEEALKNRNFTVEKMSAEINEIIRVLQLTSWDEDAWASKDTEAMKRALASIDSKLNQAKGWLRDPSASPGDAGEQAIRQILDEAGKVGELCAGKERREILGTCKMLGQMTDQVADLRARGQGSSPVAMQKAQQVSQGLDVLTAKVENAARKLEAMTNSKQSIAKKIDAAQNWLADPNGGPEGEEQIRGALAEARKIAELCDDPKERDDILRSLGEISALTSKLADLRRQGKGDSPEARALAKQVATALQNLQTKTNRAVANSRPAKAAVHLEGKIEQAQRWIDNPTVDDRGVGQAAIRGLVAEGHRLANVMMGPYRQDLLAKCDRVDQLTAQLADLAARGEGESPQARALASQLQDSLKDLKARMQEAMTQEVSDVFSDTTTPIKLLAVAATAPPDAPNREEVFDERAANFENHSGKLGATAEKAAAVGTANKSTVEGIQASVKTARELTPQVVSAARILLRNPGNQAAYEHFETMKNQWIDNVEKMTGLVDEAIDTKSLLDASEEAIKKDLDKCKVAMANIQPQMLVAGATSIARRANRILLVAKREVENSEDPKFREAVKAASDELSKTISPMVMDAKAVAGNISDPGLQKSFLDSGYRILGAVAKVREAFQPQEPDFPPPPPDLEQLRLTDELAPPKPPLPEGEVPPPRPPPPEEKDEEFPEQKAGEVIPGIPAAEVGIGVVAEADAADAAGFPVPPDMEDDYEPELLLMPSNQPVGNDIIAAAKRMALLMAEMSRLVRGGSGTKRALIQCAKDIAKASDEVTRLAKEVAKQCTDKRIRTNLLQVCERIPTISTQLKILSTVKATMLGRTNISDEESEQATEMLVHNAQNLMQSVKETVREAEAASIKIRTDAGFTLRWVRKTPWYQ

[2] = target: T2, metavinculin-ΔH1 (lacking residues 895–915) (human, UniProt P18206 1-1134, lacking residues 895–915); assay: as above; conditions: both partners purified
T2 construct: human metavinculin, full length (1-1,134) lacking residues 895-915 (α-helix H1): 1-894 joined to 916-1,134; also called MV-ΔH1; source: E. coli BL21-DE3, purified (as full-length metavinculin); not shown: His8, N-terminal, kept
T2 sequence (looked up): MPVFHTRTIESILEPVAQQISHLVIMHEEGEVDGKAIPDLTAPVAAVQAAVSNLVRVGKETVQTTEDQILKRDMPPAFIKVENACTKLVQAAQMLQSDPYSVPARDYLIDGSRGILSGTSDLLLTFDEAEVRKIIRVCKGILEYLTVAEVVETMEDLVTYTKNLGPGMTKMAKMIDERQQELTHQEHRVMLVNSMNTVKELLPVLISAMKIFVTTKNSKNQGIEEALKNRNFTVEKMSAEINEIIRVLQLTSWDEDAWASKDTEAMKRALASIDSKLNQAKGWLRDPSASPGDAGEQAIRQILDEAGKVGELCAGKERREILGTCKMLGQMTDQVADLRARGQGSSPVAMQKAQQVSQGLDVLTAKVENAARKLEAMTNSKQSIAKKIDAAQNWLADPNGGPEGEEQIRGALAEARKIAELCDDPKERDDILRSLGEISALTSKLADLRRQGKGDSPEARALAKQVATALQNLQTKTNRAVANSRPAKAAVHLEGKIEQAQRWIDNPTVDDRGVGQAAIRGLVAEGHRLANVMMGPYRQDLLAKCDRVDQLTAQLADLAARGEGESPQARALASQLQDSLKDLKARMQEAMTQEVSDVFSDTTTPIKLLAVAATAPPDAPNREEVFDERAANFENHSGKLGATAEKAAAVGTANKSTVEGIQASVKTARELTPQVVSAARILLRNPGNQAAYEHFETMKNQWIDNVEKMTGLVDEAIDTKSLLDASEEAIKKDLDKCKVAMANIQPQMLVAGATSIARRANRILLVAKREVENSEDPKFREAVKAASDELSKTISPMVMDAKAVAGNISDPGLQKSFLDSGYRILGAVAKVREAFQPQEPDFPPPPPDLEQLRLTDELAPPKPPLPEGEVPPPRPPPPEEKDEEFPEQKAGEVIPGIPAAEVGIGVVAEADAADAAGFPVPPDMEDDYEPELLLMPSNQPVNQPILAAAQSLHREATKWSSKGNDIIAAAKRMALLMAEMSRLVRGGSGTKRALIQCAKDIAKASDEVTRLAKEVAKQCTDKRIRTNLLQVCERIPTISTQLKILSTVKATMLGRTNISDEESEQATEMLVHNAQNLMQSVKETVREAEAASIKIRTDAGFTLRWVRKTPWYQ

binding result [1]: binds
binding result [2]: binds
B1: GST tagged vinculin tail domain (GST-Vt; residues 879–1,066) (domain or fragment, human, UniProt P18206-2 879-1066, looked up)
chain: EEKDEEFPEQKAGEVINQPMMMAARQLHDEARKWSSKGNDIIAAAKRMALLMAEMSRLVRGGSGTKRALIQCAKDIAKASDEVTRLAKEVAKQCTDKRIRTNLLQVCERIPTISTQLKILSTVKATMLGRTNISDEESEQATEMLVHNAQNLMQSVKETVREAEAASIKIRTDAGFTLRWVRKTPWYQ
notes: human vinculin tail domain, residues 879-1,066 of vinculin (1,066-residue isoform), cloned in pGEX-4T-1; source: E. coli BL21-DE3, purified (GSTrap FF, Superdex 75)
